# Experimental data: US20090105152A1
# Numbered stars: 1 amine (or outer) side, 2 acyl side, 3 side chain; on linkers, the order of the positions; unused ones are H or OH. Square brackets hold non-standard residues; d marks the D form. Azetidine3carboxylic = O=C(C1CN([*:1])C1)[*:2]; Izc = imidazolidine-2-carboxylic acid; Arg(Me) = CNC(=N)NCCC[C@H](N)C(=O)O; dDap = NC[C@@H](N)C(=O)O; dNMeA = CN[C@H](C)C(=O)O; Dab = NCC[C@H](N)C(=O)O; 2Abz = Nc1ccccc1C(=O)O; Aib = CC(C)(N)C(=O)O; azaGly = NNC(=O)O; βAla = NCCC(=O)O; Sar = CNCC(=O)O
# Molecular target: human OT7T175 (metastin receptor) (human) (UniProt Q969F8)
# Experiment: cell-based or functional assay
# Chain of human OT7T175 (metastin receptor) (human) (Q969F8 whole entry L364H): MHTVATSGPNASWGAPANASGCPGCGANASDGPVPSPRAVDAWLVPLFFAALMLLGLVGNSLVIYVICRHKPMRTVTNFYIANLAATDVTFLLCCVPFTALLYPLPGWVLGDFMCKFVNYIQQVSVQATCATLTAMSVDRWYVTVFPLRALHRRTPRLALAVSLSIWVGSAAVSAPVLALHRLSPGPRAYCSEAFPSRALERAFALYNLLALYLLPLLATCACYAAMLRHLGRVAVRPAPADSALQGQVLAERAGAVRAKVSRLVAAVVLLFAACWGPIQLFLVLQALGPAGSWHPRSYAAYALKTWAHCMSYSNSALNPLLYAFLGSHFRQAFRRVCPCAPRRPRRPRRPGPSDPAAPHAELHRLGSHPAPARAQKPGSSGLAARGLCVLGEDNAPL
row,Binder,intracellular Ca ion level-increasing activity [specific activity to Metastin (1-54)] (relative to Metastin (1-54))
1,"Ac-[dY][dNMeA]NTF[azaGly]L[Arg(Me)]W-NH2 (SMILES CNC(=N)NCCC[C@H](NC(=O)[C@H](CC(C)C)NC(=O)NNC(=O)[C@H](Cc1ccccc1)NC(=O)[C@@H](NC(=O)[C@H](CC(N)=O)NC(=O)[C@@H](C)N(C)C(=O)[C@@H](Cc1ccc(O)cc1)NC(C)=O)[C@@H](C)O)C(=O)N[C@@H](Cc1c[nH]c2ccccc12)C(N)=O) [des(1)-Ac-[D-Tyr2,D-NMeAla3,Thr5,AzaGly7,Arg(Me)9,Trp10]MS10]",3.2
2,"Ac-[dY][Azetidine3carboxylic]NTF[azaGly]L[Arg(Me)]W-NH2 (SMILES CNC(=N)NCCC[C@H](NC(=O)[C@H](CC(C)C)NC(=O)NNC(=O)[C@H](Cc1ccccc1)NC(=O)[C@@H](NC(=O)[C@H](CC(N)=O)NC(=O)C1CN(C(=O)[C@@H](Cc2ccc(O)cc2)NC(C)=O)C1)[C@@H](C)O)C(=O)N[C@@H](Cc1c[nH]c2ccccc12)C(N)=O) [des(1)-Ac-[D-Tyr2,Aze(3)3,Thr5,AzaGly7,Arg(Me)9,Trp10]MS10]",4.1
3,"Ac-[dY]LNTF[azaGly]L[Arg(Me)]W-NH2 (SMILES CNC(=N)NCCC[C@H](NC(=O)[C@H](CC(C)C)NC(=O)NNC(=O)[C@H](Cc1ccccc1)NC(=O)[C@@H](NC(=O)[C@H](CC(N)=O)NC(=O)[C@H](CC(C)C)NC(=O)[C@@H](Cc1ccc(O)cc1)NC(C)=O)[C@@H](C)O)C(=O)N[C@@H](Cc1c[nH]c2ccccc12)C(N)=O) [des(1)-Ac-[D-Tyr2,Leu3,Thr5,AzaGly7,Arg(Me)9,Trp10]MS10]",3.4
4,"Ac-[dY]KNTF[azaGly]L[Arg(Me)]W-NH2 (SMILES CNC(=N)NCCC[C@H](NC(=O)[C@H](CC(C)C)NC(=O)NNC(=O)[C@H](Cc1ccccc1)NC(=O)[C@@H](NC(=O)[C@H](CC(N)=O)NC(=O)[C@H](CCCCN)NC(=O)[C@@H](Cc1ccc(O)cc1)NC(C)=O)[C@@H](C)O)C(=O)N[C@@H](Cc1c[nH]c2ccccc12)C(N)=O) [des(1)-Ac-[D-Tyr2,Lys3,Thr5,AzaGly7,Arg(Me)9,Trp10]MS10]",3
5,"Ac-[dY][Sar]NTF[azaGly]L[Arg(Me)]W-NH2 (SMILES CNC(=N)NCCC[C@H](NC(=O)[C@H](CC(C)C)NC(=O)NNC(=O)[C@H](Cc1ccccc1)NC(=O)[C@@H](NC(=O)[C@H](CC(N)=O)NC(=O)CN(C)C(=O)[C@@H](Cc1ccc(O)cc1)NC(C)=O)[C@@H](C)O)C(=O)N[C@@H](Cc1c[nH]c2ccccc12)C(N)=O) [des(1)-Ac-[D-Tyr2,Sar3,Thr5,AzaGly7,Arg(Me)9,Trp10]MS10]",8.8
6,"Ac-[dY][2Abz]NTF[azaGly]L[Arg(Me)]W-NH2 (SMILES CNC(=N)NCCC[C@H](NC(=O)[C@H](CC(C)C)NC(=O)NNC(=O)[C@H](Cc1ccccc1)NC(=O)[C@@H](NC(=O)[C@H](CC(N)=O)NC(=O)c1ccccc1NC(=O)[C@@H](Cc1ccc(O)cc1)NC(C)=O)[C@@H](C)O)C(=O)N[C@@H](Cc1c[nH]c2ccccc12)C(N)=O) [des(1)-Ac-[D-Tyr2,Abz(2)3,Thr5,AzaGly7,Arg(Me)9,Trp10]MS10]",3.2
7,"Ac-[dY]ENTF[azaGly]L[Arg(Me)]W-NH2 (SMILES CNC(=N)NCCC[C@H](NC(=O)[C@H](CC(C)C)NC(=O)NNC(=O)[C@H](Cc1ccccc1)NC(=O)[C@@H](NC(=O)[C@H](CC(N)=O)NC(=O)[C@H](CCC(=O)O)NC(=O)[C@@H](Cc1ccc(O)cc1)NC(C)=O)[C@@H](C)O)C(=O)N[C@@H](Cc1c[nH]c2ccccc12)C(N)=O) [des(1)-Ac-[D-Tyr2,Glu3,Thr5,AzaGly7,Arg(Me)9,Trp10]MS10]",2.2
8,"Ac-NTF[azaGly]L[Arg(Me)]W-NH2 (SMILES CNC(=N)NCCC[C@H](NC(=O)[C@H](CC(C)C)NC(=O)NNC(=O)[C@H](Cc1ccccc1)NC(=O)[C@@H](NC(=O)[C@H](CC(N)=O)NC(C)=O)[C@@H](C)O)C(=O)N[C@@H](Cc1c[nH]c2ccccc12)C(N)=O) [des(1-3)-Ac-[Thr5,AzaGly7,Arg(Me)9,Trp10]MS10]",9.8
9,"Ac-[dY][dD]NTF[azaGly]L[Arg(Me)]W-NH2 (SMILES CNC(=N)NCCC[C@H](NC(=O)[C@H](CC(C)C)NC(=O)NNC(=O)[C@H](Cc1ccccc1)NC(=O)[C@@H](NC(=O)[C@H](CC(N)=O)NC(=O)[C@@H](CC(=O)O)NC(=O)[C@@H](Cc1ccc(O)cc1)NC(C)=O)[C@@H](C)O)C(=O)N[C@@H](Cc1c[nH]c2ccccc12)C(N)=O) [des(1)-Ac-[D-Tyr2,D-Asp3,Thr5,AzaGly7,Arg(Me)9,Trp10]MS10]",3.4
10,"Ac-[dY][Aib]NTF[azaGly]L[Arg(Me)]W-NH2 (SMILES CNC(=N)NCCC[C@H](NC(=O)[C@H](CC(C)C)NC(=O)NNC(=O)[C@H](Cc1ccccc1)NC(=O)[C@@H](NC(=O)[C@H](CC(N)=O)NC(=O)C(C)(C)NC(=O)[C@@H](Cc1ccc(O)cc1)NC(C)=O)[C@@H](C)O)C(=O)N[C@@H](Cc1c[nH]c2ccccc12)C(N)=O) [des(1)-Ac-[D-Tyr2,Aib3,Thr5,AzaGly7,Arg(Me)9,Trp10]MS10]",1.5

# Other lines, results leading:
row,intracellular Ca ion level-increasing activity [specific activity to Metastin (1-54)] (relative to Metastin (1-54)),Binder
1,2.6,"Ac-[dY][βAla]NTF[azaGly]L[Arg(Me)]W-NH2 (SMILES CNC(=N)NCCC[C@H](NC(=O)[C@H](CC(C)C)NC(=O)NNC(=O)[C@H](Cc1ccccc1)NC(=O)[C@@H](NC(=O)[C@H](CC(N)=O)NC(=O)CCNC(=O)[C@@H](Cc1ccc(O)cc1)NC(C)=O)[C@@H](C)O)C(=O)N[C@@H](Cc1c[nH]c2ccccc12)C(N)=O) [des(1)-Ac-[D-Tyr2,β-Ala3,Thr5,AzaGly7,Arg(Me)9,Trp10]MS10]"
2,1.1,"Ac-[dY][dW][Dab]TF[azaGly]L[Arg(Me)]W-NH2 (SMILES CNC(=N)NCCC[C@H](NC(=O)[C@H](CC(C)C)NC(=O)NNC(=O)[C@H](Cc1ccccc1)NC(=O)[C@@H](NC(=O)[C@H](CCN)NC(=O)[C@@H](Cc1c[nH]c2ccccc12)NC(=O)[C@@H](Cc1ccc(O)cc1)NC(C)=O)[C@@H](C)O)C(=O)N[C@@H](Cc1c[nH]c2ccccc12)C(N)=O) [des(1)-Ac-[D-Tyr2,D-Trp3,Dab4,Thr5,AzaGly7,Arg(Me)9,Trp10]MS10]"
3,3,"Ac-[dY][dS]NTF[azaGly]L[Arg(Me)]W-NH2 (SMILES CNC(=N)NCCC[C@H](NC(=O)[C@H](CC(C)C)NC(=O)NNC(=O)[C@H](Cc1ccccc1)NC(=O)[C@@H](NC(=O)[C@H](CC(N)=O)NC(=O)[C@@H](CO)NC(=O)[C@@H](Cc1ccc(O)cc1)NC(C)=O)[C@@H](C)O)C(=O)N[C@@H](Cc1c[nH]c2ccccc12)C(N)=O) [des(1)-Ac-[D-Tyr2,D-Ser3,Thr5,AzaGly7,Arg(Me)9,Trp10]MS10]"
4,1.6,"Ac-[dY][dH]NTF[azaGly]L[Arg(Me)]W-NH2 (SMILES CNC(=N)NCCC[C@H](NC(=O)[C@H](CC(C)C)NC(=O)NNC(=O)[C@H](Cc1ccccc1)NC(=O)[C@@H](NC(=O)[C@H](CC(N)=O)NC(=O)[C@@H](Cc1c[nH]cn1)NC(=O)[C@@H](Cc1ccc(O)cc1)NC(C)=O)[C@@H](C)O)C(=O)N[C@@H](Cc1c[nH]c2ccccc12)C(N)=O) [des(1)-Ac-[D-Tyr2,D-His3,Thr5,AzaGly7,Arg(Me)9,Trp10]MS10]"
5,2.4,"Ac-[dY][dDap]NTF[azaGly]L[Arg(Me)]W-NH2 (SMILES CNC(=N)NCCC[C@H](NC(=O)[C@H](CC(C)C)NC(=O)NNC(=O)[C@H](Cc1ccccc1)NC(=O)[C@@H](NC(=O)[C@H](CC(N)=O)NC(=O)[C@@H](CN)NC(=O)[C@@H](Cc1ccc(O)cc1)NC(C)=O)[C@@H](C)O)C(=O)N[C@@H](Cc1c[nH]c2ccccc12)C(N)=O) [des(1)-Ac-[D-Tyr2,D-Dap3,Thr5,AzaGly7,Arg(Me)9,Trp10]MS10]"
6,2.3,"Ac-[dY]ANTF[azaGly]L[Arg(Me)]W-NH2 (SMILES CNC(=N)NCCC[C@H](NC(=O)[C@H](CC(C)C)NC(=O)NNC(=O)[C@H](Cc1ccccc1)NC(=O)[C@@H](NC(=O)[C@H](CC(N)=O)NC(=O)[C@H](C)NC(=O)[C@@H](Cc1ccc(O)cc1)NC(C)=O)[C@@H](C)O)C(=O)N[C@@H](Cc1c[nH]c2ccccc12)C(N)=O) [des(1)-Ac-[D-Tyr2,Ala3,Thr5,AzaGly7,Arg(Me)9,Trp10]MS10]"
7,2.4,"Ac-[dY]SNTF[azaGly]L[Arg(Me)]W-NH2 (SMILES CNC(=N)NCCC[C@H](NC(=O)[C@H](CC(C)C)NC(=O)NNC(=O)[C@H](Cc1ccccc1)NC(=O)[C@@H](NC(=O)[C@H](CC(N)=O)NC(=O)[C@H](CO)NC(=O)[C@@H](Cc1ccc(O)cc1)NC(C)=O)[C@@H](C)O)C(=O)N[C@@H](Cc1c[nH]c2ccccc12)C(N)=O) [des(1)-Ac-[D-Tyr2,Ser3,Thr5,AzaGly7,Arg(Me)9,Trp10]MS10]"
8,2.3,"Ac-[dY][Izc]NTF[azaGly]L[Arg(Me)]W-NH2 [des(1)-Ac-[D-Tyr2,Izc3,Thr5,AzaGly7,Arg(Me)9,Trp10]MS10]"
9,12.8,"Ac-[dY][dW]NTF[azaGly]L[dR]W-NH2 (SMILES CC(=O)N[C@H](Cc1ccc(O)cc1)C(=O)N[C@H](Cc1c[nH]c2ccccc12)C(=O)N[C@@H](CC(N)=O)C(=O)N[C@H](C(=O)N[C@@H](Cc1ccccc1)C(=O)NNC(=O)N[C@@H](CC(C)C)C(=O)N[C@H](CCCNC(=N)N)C(=O)N[C@@H](Cc1c[nH]c2ccccc12)C(N)=O)[C@@H](C)O) [des(1)-Ac-[D-Tyr2,D-Trp3,Thr5,AzaGly7,D-Arg9,Trp10]MS10]"
10,1.4,"Ac-[dY][dQ]NTF[azaGly]L[Arg(Me)]W-NH2 (SMILES CNC(=N)NCCC[C@H](NC(=O)[C@H](CC(C)C)NC(=O)NNC(=O)[C@H](Cc1ccccc1)NC(=O)[C@@H](NC(=O)[C@H](CC(N)=O)NC(=O)[C@@H](CCC(N)=O)NC(=O)[C@@H](Cc1ccc(O)cc1)NC(C)=O)[C@@H](C)O)C(=O)N[C@@H](Cc1c[nH]c2ccccc12)C(N)=O) [des(1)-Ac-[D-Tyr2,D-Gln3,Thr5,AzaGly7,Arg(Me)9,Trp10]MS10]"
